Drawing on paper PMC5714123, “The SMAD3 transcription factor binds complex RNA structures with high affinity”, this text covers Kd for 20 molecules.

Series [1] concerns the target T1, SMAD3 MH1 (Homo sapiens, UniProt P84022 1-132). The series can be described thus: EMSA; Hill 3.1; EMSA: 25 mM Tris-HCl (pH not given for binding buffer; RNA stock pH 7.5), 115 mM KCl, 1 mM MgCl2, 1 mM DTT, 20 ng/ul poly I:C, 0.1 mg/ml BSA, 10% glycerol, on ice 2 h; 0.5x TBE gel at 4 C. The settings on record: protein: recombinant; tags: 6xHis-SUMO cleaved; label: 5' 32P; hairpin.

Series [2] deals with T1, SMAD3 MH1. Kind of series: EMSA; Hill 3.4; EMSA: 25 mM Tris-HCl (pH not given for binding buffer; RNA stock pH 7.5), 115 mM KCl, 1 mM MgCl2, 1 mM DTT, 20 ng/ul poly I:C, 0.1 mg/ml BSA, 10% glycerol, on ice 2 h; 0.5x TBE gel at 4 C. The following applies: protein: recombinant; tags: 6xHis-SUMO cleaved; label: 5' 32P; hairpin. A general note: Mobility shift assays separate free from complexed probe on a gel.

The target of series [3] is T1, SMAD3 MH1. Kind of series: EMSA; Hill 2.2; EMSA: 25 mM Tris-HCl (pH not given for binding buffer; RNA stock pH 7.5), 115 mM KCl, 1 mM MgCl2, 1 mM DTT, 20 ng/ul poly I:C, 0.1 mg/ml BSA, 10% glycerol, on ice 2 h; 0.5x TBE gel at 4 C. The following applies: protein: recombinant; tags: 6xHis-SUMO cleaved; label: 5' 32P; hairpin with 1x5 internal loop.
Series [4] has as its target T1, SMAD3 MH1. Kind of series: EMSA; Hill 3.0; EMSA: 25 mM Tris-HCl (pH not given for binding buffer; RNA stock pH 7.5), 115 mM KCl, 1 mM MgCl2, 1 mM DTT, 20 ng/ul poly I:C, 0.1 mg/ml BSA, 10% glycerol, on ice 2 h; 0.5x TBE gel at 4 C. The following applies: protein: recombinant; tags: 6xHis-SUMO cleaved; label: 5' 32P; hairpin.
The target of series [5] is T1, SMAD3 MH1. The series can be described thus: EMSA; Hill 1.7; EMSA: 25 mM Tris-HCl (pH not given for binding buffer; RNA stock pH 7.5), 115 mM KCl, 1 mM MgCl2, 1 mM DTT, 20 ng/ul poly I:C, 0.1 mg/ml BSA, 10% glycerol, on ice 2 h; 0.5x TBE gel at 4 C. The following applies: protein: recombinant, tags: 6xHis-SUMO cleaved.
Series [6] has as its target T1, SMAD3 MH1. Kind of series: EMSA; Hill 1.8; EMSA: 25 mM Tris-HCl (pH not given for binding buffer; RNA stock pH 7.5), 115 mM KCl, 1 mM MgCl2, 1 mM DTT, 20 ng/ul poly I:C, 0.1 mg/ml BSA, 10% glycerol, on ice 2 h; 0.5x TBE gel at 4 C. The settings on record: protein: recombinant, tags: 6xHis-SUMO cleaved.
Series [7] has as its target T1, SMAD3 MH1. Kind of series: EMSA; Hill 2.7; EMSA: 25 mM Tris-HCl (pH not given for binding buffer; RNA stock pH 7.5), 115 mM KCl, 1 mM MgCl2, 1 mM DTT, 20 ng/ul poly I:C, 0.1 mg/ml BSA, 10% glycerol, on ice 2 h; 0.5x TBE gel at 4 C. The settings on record: protein: recombinant; tags: 6xHis-SUMO cleaved; label: 5' 32P; hairpin.
Series [8] deals with T1, SMAD3 MH1. Kind of series: EMSA; Hill 3.2; EMSA: 25 mM Tris-HCl (pH not given for binding buffer; RNA stock pH 7.5), 115 mM KCl, 1 mM MgCl2, 1 mM DTT, 20 ng/ul poly I:C, 0.1 mg/ml BSA, 10% glycerol, on ice 2 h; 0.5x TBE gel at 4 C. The following applies: protein: recombinant; tags: 6xHis-SUMO cleaved; label: 5' 32P; hairpin with single-stranded flanks.
In series [9] the target is T1, SMAD3 MH1. The series can be described thus: EMSA; Hill 1.1; EMSA: 25 mM Tris-HCl (pH not given for binding buffer; RNA stock pH 7.5), 115 mM KCl, 1 mM MgCl2, 1 mM DTT, 20 ng/ul poly I:C, 0.1 mg/ml BSA, 10% glycerol, on ice 2 h; 0.5x TBE gel at 4 C. The settings on record: protein: recombinant; tags: 6xHis-SUMO cleaved; label: 5' 32P; structured, multi-loop.
Series [10] concerns the target T1, SMAD3 MH1. The series can be described thus: EMSA; Hill 1.9; EMSA: 25 mM Tris-HCl (pH not given for binding buffer; RNA stock pH 7.5), 115 mM KCl, 1 mM MgCl2, 1 mM DTT, 20 ng/ul poly I:C, 0.1 mg/ml BSA, 10% glycerol, on ice 2 h; 0.5x TBE gel at 4 C. The settings on record: protein: recombinant, tags: 6xHis-SUMO cleaved.
In series [11] the target is T1, SMAD3 MH1. Kind of series: EMSA; Hill 2.5; EMSA: 25 mM Tris-HCl (pH not given for binding buffer; RNA stock pH 7.5), 115 mM KCl, 1 mM MgCl2, 1 mM DTT, 20 ng/ul poly I:C, 0.1 mg/ml BSA, 10% glycerol, on ice 2 h; 0.5x TBE gel at 4 C. The settings on record: protein: recombinant; tags: 6xHis-SUMO cleaved; label: 5' 32P; hairpin with 2x3 internal loop.
Series [12] deals with T1, SMAD3 MH1. The series can be described thus: EMSA; Hill 1.6; EMSA: 25 mM Tris-HCl (pH not given for binding buffer; RNA stock pH 7.5), 115 mM KCl, 1 mM MgCl2, 1 mM DTT, 20 ng/ul poly I:C, 0.1 mg/ml BSA, 10% glycerol, on ice 2 h; 0.5x TBE gel at 4 C. The following applies: protein: recombinant; tags: 6xHis-SUMO cleaved; label: 5' 32P; hairpin.
Series [13] deals with T1, SMAD3 MH1. Kind of series: EMSA; Hill 3.6; EMSA: 25 mM Tris-HCl (pH not given for binding buffer; RNA stock pH 7.5), 115 mM KCl, 1 mM MgCl2, 1 mM DTT, 20 ng/ul poly I:C, 0.1 mg/ml BSA, 10% glycerol, on ice 2 h; 0.5x TBE gel at 4 C. The following applies: protein: recombinant; tags: 6xHis-SUMO cleaved; label: 5' 32P (EMSA); hairpin.
Series [14] addresses T1, SMAD3 MH1. The series can be described thus: EMSA; Hill 2.1; EMSA: 25 mM Tris-HCl (pH not given for binding buffer; RNA stock pH 7.5), 115 mM KCl, 1 mM MgCl2, 1 mM DTT, 20 ng/ul poly I:C, 0.1 mg/ml BSA, 10% glycerol, on ice 2 h; 0.5x TBE gel at 4 C. The following applies: protein: recombinant; tags: 6xHis-SUMO cleaved; label: 5' 32P; hairpin with 6x3 internal loop.
Where [15] appears, read: label: 5' 32P, hairpin with 6x3 internal loop.

Positions count from the first letter of the chain named. In names and notes the source's numbering stands.

T1 sequence (P84022 1-132): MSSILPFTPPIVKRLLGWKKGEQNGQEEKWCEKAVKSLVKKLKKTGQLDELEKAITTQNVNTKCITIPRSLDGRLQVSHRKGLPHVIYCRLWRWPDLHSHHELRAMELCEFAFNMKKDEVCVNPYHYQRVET

B1: 1a hsa-miR-21 central stem (structured_RNA)
RNA: GGACGCUUAUCAGACUGAUGUUGUUCGCAACACCAGUCGAUGGGCGUCC
By Kd is commonly meant the equilibrium constant for the complex coming apart. For B1, the Kd in the series with SMAD3 MH1 [1] amounted to 2500 ± 100 nM.

B2: 1b hsa-miR-21 central stem dSBE (structured_RNA)
RNA: B1 RNA with C11A, G13A, C38U, G39U
For B2, the Kd in the series with SMAD3 MH1 [2] worked out at 2700 ± 100 nM.

B3: 17e D4a isolated apical loop (structured_RNA)
RNA: GGGUCUCGUAUUGCAGAUGACACAUCUGCCGUAACCAAUCGGGUAAAAGGUGUGUCAUCUGCAAUGCGAGAC
B3: the Kd with SMAD3 MH1 [3] worked out at 400 ± 10 nM.

B4: 6b hsa-miR-509 central stem dSBE (structured_RNA)
RNA: GGACGUACUGCCAGAAGUGGGCGUUCGCGCGUACUCUGGUGGGUACGUCC
Turning to B4, in the series with SMAD3 MH1 [4], the Kd came out at 3000 ± 300 nM.

B5: 17a D4a truncation 1 (structured_RNA)
RNA: GGGUCUCGUAUUGCAGAAAUGACAACAUCUUUCGAGGUGGUCAAAUCAAGCGAGAC
Consider B5, for which the Kd with SMAD3 MH1 [5] (setting [15]) was determined as 340 ± 70 nM.

B6: 6a hsa-miR-509 central stem (structured_RNA)
RNA: GGACGUACUGCAGACAGUGGGCGUUCGCGCGUACGUCUGUGGGUACGUCC
For the molecule B6, the Kd with SMAD3 MH1 [6] (label: 5' 32P, hairpin) amounted to 2100 ± 300 nM.

B7: 9c cel-miR-84 stem loop (structured_RNA)
RNA: GGCAUCUGAGGUAGUAUGUAAUAUUGUAGACUGUCUAUAAUGUCCACAAUGUUUCAACUAACUCGGCUGCC
On to B7, for which the Kd in the series with SMAD3 MH1 [7] is 1600 ± 100 nM.

B8: 17b D4a truncation 2 (structured_RNA)
RNA: GGGUCUCGUAUUGCAGAAAUGACUUCGGUCAAAUCAAGAGAGAC
B8: in the series with SMAD3 MH1 [6] (setting [15]), the Kd is 480 ± 80 nM.

B9: 17 Group II intron D4A (structured_RNA)
RNA: GGGGUCUCGUAUUGCAGAAAUGACAACAUCUGCCGUAACCAAUCGGGUAAAAGGUGGUCAAAUCAAGCGAGAC
B9: the Kd with SMAD3 MH1 [5] (label: 5' 32P (EMSA), hairpin with 1x5 and 6x3 internal loops) was found to be 190 ± 10 nM.

B10: 10 hsa-miR-21 extended (structured_RNA)
RNA: GGGUGUUUUGCCUACCAUCGUGACAUCUCCAUGGCUGUACCACCUUGUCGGGUAGCUUAUCAGACUGAUGUUGACUGUUGAAUCUCAUGGCAACACCAGUCGAUGGGCUGUCUGACAUUUUGGUAUCUUUCAUCUGACCAUCCAUAUCCAAUGUUCUCAG
On to B10, for which the Kd with SMAD3 MH1 [8] worked out at 700 ± 60 nM.

B11: 11 VAI (structured_RNA)
RNA: GGGCACUCUUCCGUGGUCUGGUGGAUAAAUUCGCAAGGGUAUCAUGGCGGACGACCGGGGUUCGAACCCCGGAUCCGGCCGUCCGCCGUGAUCCAUGCGGUUACCGCCCGCGUGUCGAACCCAGGUGUGCGACGUCAGACAACGGGGGAGCGCUC
Take B11: in the series with SMAD3 MH1 [9], the Kd amounted to 110 ± 20 nM.

B12: 3c hsa-miR-199a-1 stem loop (structured_RNA)
RNA: GGCCAACCCAGUGUUCAGACUACCUGUUCAGGAGGCUCUCAAUGUGUACAGUAGUCUGCACAUUGGUUAGGCC
Take B12: the Kd with SMAD3 MH1 [10] (label: 5' 32P, hairpin) is 1250 ± 50 nM.

B13: 21 RRE (structured_RNA)
RNA: GGUCUGGGCGCAGCGCAAGCUGACGGUACAGGCC
Regarding B13, the Kd with SMAD3 MH1 [11] turned out to be 3000 ± 300 nM.

B14: 17c D4a truncation 3 (structured_RNA)
RNA: GGGUCUCGUAUUGCAGAAAUAAAUCAAGCGAGAC
Take B14: in the series with SMAD3 MH1 [12], the Kd amounted to 1500 ± 300 nM.

B15: 16 30-bp hairpin (structured_RNA)
RNA: GGAUCGAUCGAUCGAUCGGCAUCGAUCGGCUUCGGCCGAUCGAUGCCGAUCGAUCGAUCGAUCC
B15: the Kd with SMAD3 MH1 [13] was 4000 ± 200 nM.

B16: 19 dsDNA with 1 SBE (dsDNA)
DNA 1: GTATGTCTCAGATGAA
DNA 2: TTCATCTGAGACATAC
For B16, the Kd with SMAD3 MH1 [10] (label: 5' 32P on one strand, blunt) was found to be 190 ± 20 nM.

B17: 9a cel-miR-84 central stem (structured_RNA)
RNA: GGACGUGAGGUAGUAUGUAAGCGUUCGCGCUUUCAACUAACUCGCGUCC
Regarding B17, the Kd with SMAD3 MH1 [7] came to 2900 ± 100 nM.

B18: 20 NF-kB aptamer (structured_RNA)
RNA: GAUACUUGAAACUGUAAGGUUGGCGUAUC
For B18, the Kd with SMAD3 MH1 [6] (label: 5' 32P, hairpin with 4x3 internal loop) came to 4400 ± 600 nM.

B19: 18 ai5-gamma D3 (structured_RNA)
RNA: GGGUAUAAAAAGCUAAUGCCAUAUUGUAAUGAUAUGGAUAAGAAUUAUUAUUCUAAAGAUGAAAAUCUGCUAACUUAUACUG
For the molecule B19, the Kd with SMAD3 MH1 [6] (label: 5' 32P (EMSA), four-way junction with bulged stem) was 190 ± 30 nM.

B20: 17d D4a isolated terminal loop (structured_RNA)
RNA: GGGUCUCGUAUUGCAGAAAUGACACAUCUUGCCCGUAACCAAUCGGGUAAGGUGUGUCAAAUCAAUGCGAGAC
As for B20, the Kd in the series with SMAD3 MH1 [14] is 570 ± 20 nM.
